Source: patent publication US20220226486A1 (SYNTAB THERAPEUTICS, published 2022)
Ends that are not written are not given here.

Biological target: T1, αvβ6 Integrin (human, UniProt P06756 31-1048; P18564 22-788)
T1 construct: whole, on cells; also called αvβ6 Integrin surface antigen
Experiment: flow cytometry, 10 nM biotinylated binder on human tumor cell lines, Streptavidin-PerCP-Cy5.5
Description: The binding capability of peptides or peptidomimetics, of synthetic compounds according to the invention to different cell lines displaying particular targets was investigated by using flow cytometry. Detached cells were incubated with biotinylated peptide/peptidomimetic or biotinylated synthetic compound in blocking buffer for at least 30 min of ice. The cells were washed twice with washing buffer followed by incubation with streptavidin labeled with the Peridinin-chlorophyll protein PerCP-Cy5.5 (BD Biosciences) for 15 minutes on ice. After one additional wash step, samples were analyzed using FACS Canto (at least 10,000 cells per sample were counted) for cells which have bound the biotinylated reagent plus the streptavidin-PerCP-Cy5.5. Overlay histograms of cells incubated with peptide or control peptide were generated and the geometrical mean fluorescence of each sample was determined in FloJo. The EC50 measurements were calculated using Graph Prism software.

T1 sequence (P06756 31-1048, chain 1 of 2): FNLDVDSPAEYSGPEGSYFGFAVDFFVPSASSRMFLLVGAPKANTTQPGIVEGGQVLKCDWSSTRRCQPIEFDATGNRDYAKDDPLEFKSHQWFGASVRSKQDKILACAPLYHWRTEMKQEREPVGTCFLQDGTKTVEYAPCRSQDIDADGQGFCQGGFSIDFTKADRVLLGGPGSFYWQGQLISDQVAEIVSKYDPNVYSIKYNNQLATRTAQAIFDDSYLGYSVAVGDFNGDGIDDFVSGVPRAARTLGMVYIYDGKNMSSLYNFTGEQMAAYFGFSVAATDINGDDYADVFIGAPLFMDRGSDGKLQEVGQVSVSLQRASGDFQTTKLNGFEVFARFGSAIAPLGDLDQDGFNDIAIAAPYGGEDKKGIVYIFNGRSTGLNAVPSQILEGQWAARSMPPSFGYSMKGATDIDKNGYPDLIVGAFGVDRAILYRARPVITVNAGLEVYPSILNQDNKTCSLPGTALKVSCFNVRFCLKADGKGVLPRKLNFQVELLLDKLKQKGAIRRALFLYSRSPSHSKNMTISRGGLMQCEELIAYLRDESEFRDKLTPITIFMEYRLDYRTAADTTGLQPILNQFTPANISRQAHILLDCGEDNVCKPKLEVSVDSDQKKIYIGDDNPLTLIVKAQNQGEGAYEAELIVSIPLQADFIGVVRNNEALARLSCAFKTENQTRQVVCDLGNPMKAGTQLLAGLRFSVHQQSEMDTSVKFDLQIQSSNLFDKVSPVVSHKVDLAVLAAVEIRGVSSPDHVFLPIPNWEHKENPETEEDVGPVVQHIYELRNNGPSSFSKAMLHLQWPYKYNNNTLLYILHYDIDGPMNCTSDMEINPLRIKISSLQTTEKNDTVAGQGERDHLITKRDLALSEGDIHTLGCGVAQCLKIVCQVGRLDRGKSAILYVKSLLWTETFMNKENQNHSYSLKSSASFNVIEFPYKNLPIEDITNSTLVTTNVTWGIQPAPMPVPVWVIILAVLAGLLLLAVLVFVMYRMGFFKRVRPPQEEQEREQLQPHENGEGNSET
T1 sequence (P18564 22-788, chain 2 of 2): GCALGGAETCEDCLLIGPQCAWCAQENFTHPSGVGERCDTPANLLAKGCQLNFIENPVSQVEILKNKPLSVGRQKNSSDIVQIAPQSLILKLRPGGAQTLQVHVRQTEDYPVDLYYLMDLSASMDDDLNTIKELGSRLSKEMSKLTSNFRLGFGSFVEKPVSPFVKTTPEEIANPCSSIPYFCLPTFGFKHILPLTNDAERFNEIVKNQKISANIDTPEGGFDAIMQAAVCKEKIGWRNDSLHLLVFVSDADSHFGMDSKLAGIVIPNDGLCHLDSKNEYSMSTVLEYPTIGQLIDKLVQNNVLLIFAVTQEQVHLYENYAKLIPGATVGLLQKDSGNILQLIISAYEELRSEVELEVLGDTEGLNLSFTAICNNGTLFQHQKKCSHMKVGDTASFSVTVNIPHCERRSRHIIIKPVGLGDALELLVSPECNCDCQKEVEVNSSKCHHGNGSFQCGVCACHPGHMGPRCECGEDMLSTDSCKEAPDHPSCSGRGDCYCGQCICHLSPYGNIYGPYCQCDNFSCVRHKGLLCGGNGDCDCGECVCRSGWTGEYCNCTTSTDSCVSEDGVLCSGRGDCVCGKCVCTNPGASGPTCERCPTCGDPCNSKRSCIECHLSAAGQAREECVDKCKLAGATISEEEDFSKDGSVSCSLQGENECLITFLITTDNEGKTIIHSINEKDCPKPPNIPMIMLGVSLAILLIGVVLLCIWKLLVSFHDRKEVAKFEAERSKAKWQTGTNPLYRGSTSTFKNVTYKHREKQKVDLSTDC

binding result: binds
B1: biotinylated peptide binder SEQ ID No 2 targeting αvβ6 Integrin (peptide)
peptide: RGDLATLRQL
modifications: also: biotinylated, site not given here
notes: Synthetic peptide, biotinylated for flow cytometry
